Results published in patent US9395368B2, “Methods, agents and peptides for inducing an immune response to matrix metalloproteinase-2 expressing tumors” (New York University, priority 2010, dated 2016).

Legend:
human basophils = assay: Basophil activation by MMP-2 (IL-4, TSLP, CD203c); type: cell-based
IFNβ production by DCs = assay: IFNβ levels produced by poly(I:C)-matured DCs (ELISA); type: cell-based, human; conditions: poly(I:C)-matured DCs pre-exposed, 16 h
Procedure: Immature DCs were incubated with MMP-2 (0.5 μg/mL or 5 μg/mL) and poly(I:C)-matured 1 h later. IL-12 levels were measured 16 h later. (A) Results are represented as a percentage of IL-12p70 levels, measured by CBA, produced when DCs were incubated with poly(I:C) only (n=11). (B) For intracellular staining of IL-12p35 and IL-12p40 chains, Brefeldin A was added 4 h after poly(I:C) activation and cells were stained after an additional 12 h incubation. Numbers in the upper right quadrants are the percentages of each population for a representative donor (n=3). (C,D) Immature DCs were incubated with MMP-2 for 1 h (5 μg/mL) before poly(I:C) maturation. Intracellular staining of phosphorylated (Y701) STAT1 (P-STAT1) was performed 3 h later. […] IFNβ levels were measured by ELISA 16 h later. […] IFNAR1 protein expression was detected the next day by Western blot analysis using a rabbit monoclonal antibody. […]
Enzyme-linked immunosorbent assay Activation of T cell clones (10,000 cells/100 μL/well), polyclonal T cell populations (100,000 cells/100 μL/well), DCs (50,000 cells/100 μL/well) and basophils (10,000 cells/100 μL/well) was determined by ELISA. IFNγ (BioSource), TNFα (BioSource), IL-4 (BioSource), TSLP (Quantikine; R&D Systems), IFNβ (VeriKine; PBL interferon source) and MCP-3 (DuoSet; R&D Systems) contents in supernatants were measured according to the manufacturer's instructions.

[1] = system: phosphorylated (Y701) STAT1; assay: Intracellular staining of phosphorylated (Y701) STAT1 in DCs; type: cell-based, human; conditions: DCs preincubated 1 h (5 μg/mL) prior to poly(I:C), 3 h
Procedure: Immature DCs were incubated with MMP-2 (0.5 μg/mL or 5 μg/mL) and poly(I:C)-matured 1 h later. IL-12 levels were measured 16 h later. (A) Results are represented as a percentage of IL-12p70 levels, measured by CBA, produced when DCs were incubated with poly(I:C) only (n=11). (B) For intracellular staining of IL-12p35 and IL-12p40 chains, Brefeldin A was added 4 h after poly(I:C) activation and cells were stained after an additional 12 h incubation. Numbers in the upper right quadrants are the percentages of each population for a representative donor (n=3). (C,D) Immature DCs were incubated with MMP-2 for 1 h (5 μg/mL) before poly(I:C) maturation. Intracellular staining of phosphorylated (Y701) STAT1 (P-STAT1) was performed 3 h later. A representative donor (C) and results for all 3 donors (D) are shown. […] (E) Immature DCs were incubated with MMP-2 and poly(I:C)-matured 1 h later. IFNβ levels were measured by ELISA 16 h later. Results are represented as a percentage of IFNβ levels produced when DCs were incubated with poly(I:C) only (n=9). […] IFNAR1 protein expression was detected the next day by Western blot analysis using a rabbit monoclonal antibody. […]
Intracellular staining T-bet and GATA-3 expression was measured on resting T cells. […] Cytokine production by T cells was also assessed by intracellular staining T cells were stimulated with 2 μM overlapping peptides. […]

OX40L expression on DCs = OX40L expression on DCs by surface staining; type: cell-based, human; conditions: immature and poly(I:C)-matured DCs, n=9, 24 h
Procedure: Immature and poly(I:C)-matured DCs were incubated with active or HI MMP-2 (0.5 μg/mL or 5 μg/mL) for 24 h. MMP-2 enzymatic activity was controlled (FIG. 13C-D). OX40L expression was assessed by surface staining (A) Histogram plots are shown for representative donor HD1228. Isotype control is represented in tinted gray. (B) Mean fluorescent intensities are represented for all 9 donors tested. […] P values≦0.0167 (*) were considered statistically significant using a Bonferroni correction for 3 comparisons for each DC type. See also FIG. 12.
Dendritic cell preparation and activation. PBMCs were purified from healthy—(HD) or cord blood—(CB) donors and plated at 40×10^6 cells/10 mL/dish in complete IMDM with 5% PHS. Cells were allowed to adhere for 2 h at 37° C. Non-adherent cells were removed. The monocyte-enriched fraction was supplemented with 100 UI/mL rhGMCSF and 300 UI/mL rhIL-4 (R&D Systems) on days 0, 2 and 4. Immature DCs were harvested on day 5 and matured using poly(I:C) at 5 μg/mL/10^6 DCs (Amersham) Secretion of IL-12p70, TNFα, IL-1β, IL-6, IL-8 and IL-10 was assessed on both immature and mature DCs using the Human Inflammatory Cytokine Cytometric Bead Array (BD Pharmingen).

[2] = system: IL-12p70 production by DCs; assay: IL-12p70 production by poly(I:C)-matured DCs (CBA); type: cell-based, human
Procedure: Immature DCs were incubated with MMP-2 (0.5 μg/mL or 5 μg/mL) and poly(I:C)-matured 1 h later. IL-12 levels were measured 16 h later. (A) Results are represented as a percentage of IL-12p70 levels, measured by CBA, produced when DCs were incubated with poly(I:C) only (n=11). (B) For intracellular staining of IL-12p35 and IL-12p40 chains, Brefeldin A was added 4 h after poly(I:C) activation and cells were stained after an additional 12 h incubation. Numbers in the upper right quadrants are the percentages of each population for a representative donor (n=3). (C,D) Immature DCs were incubated with MMP-2 for 1 h (5 μg/mL) before poly(I:C) maturation. Intracellular staining of phosphorylated (Y701) STAT1 (P-STAT1) was performed 3 h later. A representative donor (C) and results for all 3 donors (D) are shown. […] (E) Immature DCs were incubated with MMP-2 and poly(I:C)-matured 1 h later. IFNβ levels were measured by ELISA 16 h later. Results are represented as a percentage of IFNβ levels produced when DCs were incubated with poly(I:C) only (n=9). (F,G) 10^6DCs/lane were treated with 0.1 μg MMP-2 or controls. Poly(I:C) was added 1 h later. IFNAR1 protein expression was detected the next day by Western blot analysis using a rabbit monoclonal antibody. A representative donor (F) and results for all 7 donors (G) are shown. (H) The rhIFNAR1 (5 μg; ≈110 kD) was incubated overnight with 0.3 μg MMP-2 before performing Western blot analysis for IFNAR1. The second band (around 90 kD) and the third band (25 kD) very likely correspond to either a degraded form of the protein still recognized by the antibody or a contaminant present in the commercial protein preparation and non-specifically recognized by the antibody. MMP-2 enzymatic activity was controlled (FIG. 13C-D). […]
Dendritic cell preparation and activation. […] Immature DCs were harvested on day 5 and matured using poly(I:C) at 5 μg/mL/10^6 DCs (Amersham) Secretion of IL-12p70, TNFα, IL-1β, IL-6, IL-8 and IL-10 was assessed on both immature and mature DCs using the Human Inflammatory Cytokine Cytometric Bead Array (BD Pharmingen).

B1: active MMP-2: Purified human MMP-2 (mixture of the proenzyme (50%) and the active form (50%)) purchased from Biomol (protein, listed as Homo sapiens)
chain: MEALMARGALTGPLRALCLLGCLLSHAAAAPSPIIKFPGDVAPKTDKELAVQYLNTFYGCPKESCNLFVLKDTLKKMQKFFGLPQTGDLDQNTIETMRKPRCGNPDVANYNFFPRKPKWDKNQITYRIIGYTPDLDPETVDDAFARAFQVWSDVTPLRFSRIHDGEADIMINFGRWEHGDGYPFDGKDGLLAHAFAPGTGVGGDSHFDDDELWTLGEGQVVRVKYGNADGEYCKFPFLFNGKEYNSCTDTGRSDGFLWCSTTYNFEKDGKYGFCPHEALFTMGGNAEGQPCKFPFRFQGTSYDSCTTEGRTDGYRWCGTTEDYDRDKKYGFCPETAMSTVGGNSEGAPCVFPFTFLGNKYESCTSAGRSDGKMWCATTANYDDDRKWGFCPDQGYSLFLVAAHEFGHAMGLEHSQDPGALMAPIYTYTKNFRLSQDDIKGIQELYGASPDIDLGTGPTPTLGPVTPEICKQDIVFDGIAQIRGEIFFFKDRFIWRTVTPRDKPMGPLLVATFWPELPEKIDAVYEAPQEEKAVFFAGNEYWIYSASTLERGYPKPLTSLGLPPDVQRVDAAFNWSKNKKTYIFAGDKFWRYNEVKKKMDPGFPKLIADAWNAIPDNLDAVVDLQGGGHSYFFKGAYYLKLENQSLKSVKFGSIKSDWLGC
production of IL-4 by basophils (human basophils; MMP-2 0.5 and 5 μg/mL): neither induced
production of TSLP by basophils (human basophils; MMP-2 0.5 and 5 μg/mL, 16 h): neither induced
expression of basophil activation marker CD203c (human basophils; PBMCs, 6 h): did not increase
IFNβ levels (IFNβ production by DCs): decreased levels
STAT1 phosphorylation [1]: decreased
OX40L expression on DCs (OX40L expression on DCs): significantly increased
IL-12p70, mean of differences ([2]; 5 μg/mL MMP-2, n=11 donors): 41.7
IL-12p70 mean inhibition ([2]; 5 μg/mL MMP-2, poly(I:C) stimulation, n=11 donors): 47.8%
